# Publication doi:10.1101/2021.03.24.436879
# Biological target: F-actin labeled at Cys-374 with fluorescein-5-maleimide (FMAL-actin) (rabbit) (UniProt P68135)
# Assay: FRET or BRET
Substance,Kd [nM],donor lifetime τDA of FMAL-actin with 20 μM TMR-C0-C2^Cys225 (τD = 4.2 ns) [ns]
single-cysteine C0-C2^Cys225 of human cMyBP-C labeled with tetramethylrhodamine (TMR-C0-C2^Cys225) (domain or fragment),1000,2
TMR-C0-C2^Cys225 of human cMyBP-C phosphorylated by PKA (domain or fragment),3000,–
